T1: soluble Macaca fascicularis CTLA-4 expressed with a C-terminal myc-myc-polyhistidine tag (Macaca fascicularis)
T1 construct: soluble protein; also called mf CTLA-4.mmh; mfCTLA4.mmh
T1 chain: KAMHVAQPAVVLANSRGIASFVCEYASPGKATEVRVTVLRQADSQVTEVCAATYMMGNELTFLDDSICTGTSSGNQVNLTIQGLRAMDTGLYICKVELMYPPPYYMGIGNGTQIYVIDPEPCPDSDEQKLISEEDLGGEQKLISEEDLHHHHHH


Key:
[1] = target: T2, human CTLA-4 (amino acids M1-N223) on stably transfected VI-fibroblast cells (human, UniProt P16410 36-223); experiment: ECL cell binding, VI-fibroblast/hCTLA-4 cells;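 further: antibodies bound to the cells on carbon electrode plates, detected via SULFO-TAG anti-IgG secondary (1 h, RT), electrochemiluminescence read as RLU over a concentration range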
T2 construct: also called VI-fibroblast/hCTLA-4

[2] = target: T3, soluble human CTLA-4 expressed with a C-terminal myc-myc-polyhistidine tag (human); experiment: SPR, mAb capture, 25 C
T3 construct: soluble protein; also called hCTLA-4.mmh; hCTLA4.mmh

[3] = target: T4, recombinant hCTLA-4-mFc (human CTLA-4 extracellular domain with a C-terminal Fc portion of mouse IgG2a) (human); experiment: competition ELISA, 200 pM hCTLA-4-mFc on plate-coated hB7-1-hIgG1-6His
T4 construct: also called dimeric CTLA-4 protein

[4] = target: T4, recombinant hCTLA-4-mFc (human CTLA-4 …); experiment: competition ELISA, 400 pM hCTLA-4-mFc on plate-coated hB7-2-hIgG1-6His
[5] = target: T1, soluble Macaca fascicularis CTLA-4 …; experiment: SPR, mAb capture, 25 C

T4 sequence (chain, as listed by the source limits assumed): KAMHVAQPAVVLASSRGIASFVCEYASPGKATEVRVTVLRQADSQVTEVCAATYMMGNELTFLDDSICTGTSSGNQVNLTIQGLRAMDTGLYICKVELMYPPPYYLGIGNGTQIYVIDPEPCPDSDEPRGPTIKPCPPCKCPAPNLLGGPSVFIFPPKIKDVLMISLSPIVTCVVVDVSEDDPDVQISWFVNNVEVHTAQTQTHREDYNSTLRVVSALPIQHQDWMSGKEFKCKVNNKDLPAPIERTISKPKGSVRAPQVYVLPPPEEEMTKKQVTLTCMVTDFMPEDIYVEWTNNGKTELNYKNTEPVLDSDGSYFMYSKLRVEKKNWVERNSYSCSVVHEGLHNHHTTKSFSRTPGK
T2 sequence (P16410 36-223 limits assumed): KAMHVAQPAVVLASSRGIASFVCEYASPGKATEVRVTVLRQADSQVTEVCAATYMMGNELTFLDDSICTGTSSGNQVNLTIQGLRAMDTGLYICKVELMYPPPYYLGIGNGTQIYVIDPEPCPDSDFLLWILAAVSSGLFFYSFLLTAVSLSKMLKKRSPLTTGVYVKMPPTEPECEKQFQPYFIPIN

Row | EC50 [1] [nM] | Kd [2] [nM] | t1/2 [2] [min] | % Blockade [3] [%] | IC50 [3] [nM] | % Blockade [4] [%] | IC50 [4] [nM] | ratio of RLU signal to parental VI-fibroblast at 0.4 nM Ab [1] [ratio] | koff [2] [s⁻¹] | kon [2] [M⁻¹ s⁻¹] | Kd [5] [nM] | koff [5] [s⁻¹] | kon [5] [M⁻¹ s⁻¹] | t1/2 [5] [min] | Binder
1 | 0.84 | 4.19 | 9.5 | 98 | 0.19 | 99 | 0.36 |  |  |  |  |  |  |  | H1H19305P (antibody, human IgG1, V domains shown) VH: QVQLQESGPGLVKPSQTLSLTCTVSGGSITSGGYYWSWIRQHPGKGLEWIGYIFYSGITNYNPSLKSRVTISVDTSKNQFSLKLTSVTAADTAVYYCATYNSLRLYYGMDVWGQGTTVTVSS VL: DVVMTQSPLSLPVILGQPASISCRSSQSLVYGDGNTYLNWFQQRPGQSPRRLIYKVSNRDSGVPDRFSGSGSGTDFTLKISRVEAEDVGVYYCMQSTHWPLTFGGGTKVEIK
2 | 0.24 | 0.752 | 44.3 | 97 | 0.21 | 100 | 0.22 | 18 | 0.000261 | 346000 | 0.763 | 0.000259 | 340000 | 44.6 | H1H19279P (antibody, human IgG1, V domains shown) VH: QVQLVQSGAEVKKPGASVKVSCKASGYTFTDYYIHWVRQAPGQGLEWMGWINPNNGVSNYAQKFQGRVTMTRDTSISTAYMDLIRLRSDDTAVYYCARERASWDYNGVDVWGQGTTVTVSS VL: not shown
3 | 0.68 | 1.13 | 35.7 | 99 | 0.15 | 99 | 0.25 | 10 | 0.000323 | 285000 | 1.02 | 0.000269 | 263000 | 43 | H1H19294P (antibody, human IgG1, V domains shown) VH: QVQLVQSGAEVKMSGASVRVSCKASGYTFTSYGISWMRQAPGQGLEWMGWITAYNGNSNYAQKLQGRVTMTTDTSTGTAYMELRSLTSDDTAVYYCARRGDYLGVFPYWGQGTLVTVSS VL: DIQMTQSPSSLSASVGDRVTITCRASQSISSYLNWYQQKPGKAPNLLIYTASSLQSGVPSRFSGSGSGTDFTLTISSLQPEDFATYYCQQSYSSPLTFGGGTKVEIK
4 | 0.7 | 3.29 | 11 | 97 | 0.2 | 99 | 0.51 | 14 | 0.00105 | 320000 | 2.28 | 0.00076 | 333000 | 15.2 | H1H19312P (antibody, human IgG1, V domains shown) VH: QVQLQESGPGLVKPSETLSLTCTVSGGSISSYHWSWIRQPLGKGLEWIGYIYYSGSTNYNPSLKSRVTISVDTSKNQFSLKLSSVTAADTAVYYCARGGSSIWPFDYWGQGTLVTVSS VL: DIQMTQSPSTLSASVGDRVTITCRASQSISSWLAWYQQKSGKAPKLLISKASTLESGVPSRFSGSGSGTEFTLTISSLQPDDFATYYCQQYNIYSWTFGQGTKVEIK
5 | 0.22 | 2.25 | 28.8 | 99 | 0.32 | 100 | 0.54 | 19 | 0.000402 | 179000 | 6.11 | 0.00101 | 166000 | 11.4 | H1H19278P (antibody, human IgG1, V domains shown) VH: QVQLVESGGGVVQPGRSLRLSCAASGFTFSSYGMNWVRQAPGKGLEWVAVTWYDGSNKHYADSVKGRFTISRDNSKNTLYLQMYSLRAEDTAMYYCVRGGHLGAFDIWGQGTMVTVSS VL: EIVLTQSPGTLSLSPGERATLSCRASQSVSSYLAWYQQKPGQAPRLLIYGASSRATGIPDRFSGGGSGTDFTLTISRLEPEDFAVYYCQQYGSSPFTFGPGTKVDIK
6 | 0.39 | 1.43 | 15.2 | 99 | 0.13 | 100 | 0.25 | 18 | 0.00076 | 530000 | 0.887 | 0.000463 | 522000 | 25 | H1H19274P (antibody, human IgG1, V domains shown) VH: QVQLQESGPGLVKPSETLSLTCTVSGGSINSYYWTWIRQPPGKGLEWIGYVYYSGSTTYNPSLKSRVTISVDTSKNQFFLNLNSVTAAETAVYYCARGTLGYYGMDVWGQGTTVTVSS VL: EIVLTQSPGTLSLSPGERATLSCRASQSFSNNYLAWYQQKPGQAPRLLIYGTSIRATGIPDRFSGSGSGTDFTLAISRLEPEDFAVYYCQQYGRSPLTFGGGTKVEIK
7 |  | 12.1 | 15.8 | 8 |  | 43 |  |  | 0.000731 | 60400 | 20.3 | 0.000994 | 49000 | 11.6 | H1H19264P (antibody, human IgG1, V domains shown) VH: QVQLVQSGAEVKKPGASVKVSCKASDYTFTSYGISWVRQAPGQGLEWMGWISVYNGNINYAQKFKGRVTMTTDTSTSTAYMELRSLRSDDMAVYYCARVTQFGMDVWGQGTTVTVSS VL: DIQMTQSPSSLSASVGDRVTITCRASQSISSNLNWYQQNPGKAPKLLIYTTSSLQGGVPSRFSGSGSGTDFTLTISSLQPEDFATYYCQQSFRTPFTFGPGTKVDIK
8 | 3.4 | 9.87 | 10.2 | 0 |  | 7 |  | 8 | 0.00113 | 115000 | 8.57 | 0.000913 | 107000 | 12.6 | H1H19314P2 (antibody, human IgG1, V domains shown) VH: QVQLVQSGAEVKKPGASVKVSCKASGYTLSSYGISWVRQAPGQGLEWMGWISAYNGNTNYAQKLQGRLTMTTDTSTSTAYMELRSLRSDDTAVYYCSRDGPFKISFFGMDVWGQGTTVTVSS VL: not shown
9 | 3.7 | 1.31 | 40.6 | 99 | 0.18 | 99 | 0.29 | 7 | 0.000284 | 217000 | 1.4 | 0.000292 | 209000 | 39.5 | H1H19307P (antibody, human IgG1, V domains shown) VH: EVQLVESGGGLVQPGGSLRLACAASGFTFSDYYMDWVRQVPGKGLEWVGRSRDKANSFTTEYVASVKGRFTISREDSKNSVYLQMNSLKTEDTAVYYCARTNYDFSLDVWGQGTTVTVSS VL: DIQMTQSPSSLSASVGDRVTITCRASQDINNYLAWFQQKPGNAPKSLIYAASSLQSGVPSKFSGSGSGTDFTLTISSLQPEDFATYYCQQYSTYPITFGQGTRLEIK
10 | 0.79 | 3.75 | 14 | 96 | 9.7 | 99 | 1.2 | 7 | 0.000828 | 221000 | 3.11 | 0.000683 | 220000 | 16.9 | H1H19283P (antibody, human IgG1, V domains shown) VH: QVQLVESGGGLVKPGGSLRLSCAASGFTFSDYYMTWIRQAPGKGLEWVSYISSSGGNIFYADSVKGRFTISRDNAKNSLYLQMNSLRGEDTAVYYCARGLEPYHYYYGMDVWGQGTTVTVSS VL: not shown
11 | 1.3 | 1.03 | 33.4 | 99 | 0.11 | 100 | 0.2 | 15 | 0.000346 | 337000 | 0.964 | 0.000309 | 320000 | 37.4 | H1H19280P (antibody, human IgG1, V domains shown) VH: QLQLQESGPGLVKPSETLSLTCIVSGGSTSSNTYYWGWIRQPPGKGLEWIGTIHYSGNPYYDPSLKSRVTISVDTSKNHFSLKLNSVTAADTAVYYCTRQYINFFDFWGQGTLVTVSS VL: EIVLTQSPATLSLSPGERVTLSCRASQSISRYLAWYQQKPGQAPRVLIYDASNRATDIPARFSGSGSGTDFTLTISSLEPEDFAVYYCQQRSNWPITFGQGTRLEIK
12 |  | 2.49 | 31.3 | 98 | 0.17 | 99 | 0.31 | 7 | 0.000369 | 148000 | 1.57 | 0.000305 | 194000 | 37.9 | H1H19284P (antibody, human IgG1, V domains shown) VH: EVQLVESGGGLVQPGGSLRLSCAASGFTLSNYVMTWVRQAPGKGLEWVSAISGRGGNSYYADSVKGRFSISRDHSKNTLYLQVNSLRAEDTAVYYCAKAERGYSYGFNWFDPWGQGTLVTVSS VL: DIQMTQSPSSVSASAGDRVTITCRASQGISSWLAWYQQKPGKAPKLLIYAASSLQSGVPSRFSGSGSGTDFTLTISSLQPEDFASYYCQQGNNFPLTFGGGTKVEIK

— US20210040232A1 (Regeneron, published 2021)
